The record followed here is US8962819B2, “Anti-C5 alpha antibodies” (Adienne S.A., priority 2002, dated 2015).

What all share (assay type): biochemical
Assay [1] deals with T1, C5 (Homo sapiens, UniProt P01031).
T1 construct: C5 alpha and beta subunits were obtained by incubating 50 μg of C5; purchased Quidel
The experiment in a line: ELISA of C5a released after cleavage of C5 by C5 convertase. As to conditions: FIG. 1A, classical pathway. As to the method:
Panel A) The ELISA assay measures the amount of C5a fragment released in the supernatant after enzymatic cleavage of C5, using antibodies anti-C5 as described in example 6. […] Sheep erythrocytes sensitised with antibodies and coated until the C3b (EAC1-3b) complement step were added to the mixture of TS-A12 or TS-A12/22 and C5, and the mixture was further incubated for 30 minutes at 37° C. (panel B).
The obtained anti-C5 scFv fragments were further characterised for their ability to inhibit the hemolytic activity of C5 or, in other words, to block conversion of the C5 component to C5a. […] At the end of this procedure, cell lysis was measured as percentage of the control of total lysis in distilled H2O (see FIG. 1, panel B). The inhibition of C5a and TCC production by the scFv TS-A12 and TS-A12/22 was measured by means of ELISA using the monoclonal antibody 17/5 as the capture antibody and antibody G25/2 as detection antibody according to what has been described in Opperman et al., 1991, Complement Inflamm. […] The presence of TCC was measured using antibody aE11 as the capture antibody and a biotinylated anti-C5 antibody (SIGMA-ALDRICH®) followed by alkaline phosphatase-conjugated streptavidin, as described by Tedesco et al. (1997, J Exp. Med. 185:1619).
On the technique in general: ELISA stands for enzyme-linked immunosorbent assay.

Assay [2] has as its target T2, C5 hemolytic activity in human serum (Homo sapiens, UniProt P01031).
T2 construct: from tissue; host or cells: human serum
The experiment in a line: Inhibition of C5 hemolytic activity in serum. As to conditions: FIG. 5A. As to the method: (§1) Measurements were performed as described in example 8, using sera from human (panel A), rat (panel B), rabbit (panel C), mouse (panel D). Since the amino acid sequence corresponding to the cleavage site of convertase on the C5 alpha chain is conserved in several animal species, it was furthermore evaluated, by hemolytic assay, the ability of TS-A12/22 antibody to inhibit conversion of C5 to C5a also in rabbit, mouse and rat sera.

The target of assay [3] is T3, C5 hemolytic activity in rat serum (Rattus norvegicus, UniProt P08650).
T3 construct: from tissue; host or cells: rat serum
T3 sequence (P08650 679-1681 limits assumed): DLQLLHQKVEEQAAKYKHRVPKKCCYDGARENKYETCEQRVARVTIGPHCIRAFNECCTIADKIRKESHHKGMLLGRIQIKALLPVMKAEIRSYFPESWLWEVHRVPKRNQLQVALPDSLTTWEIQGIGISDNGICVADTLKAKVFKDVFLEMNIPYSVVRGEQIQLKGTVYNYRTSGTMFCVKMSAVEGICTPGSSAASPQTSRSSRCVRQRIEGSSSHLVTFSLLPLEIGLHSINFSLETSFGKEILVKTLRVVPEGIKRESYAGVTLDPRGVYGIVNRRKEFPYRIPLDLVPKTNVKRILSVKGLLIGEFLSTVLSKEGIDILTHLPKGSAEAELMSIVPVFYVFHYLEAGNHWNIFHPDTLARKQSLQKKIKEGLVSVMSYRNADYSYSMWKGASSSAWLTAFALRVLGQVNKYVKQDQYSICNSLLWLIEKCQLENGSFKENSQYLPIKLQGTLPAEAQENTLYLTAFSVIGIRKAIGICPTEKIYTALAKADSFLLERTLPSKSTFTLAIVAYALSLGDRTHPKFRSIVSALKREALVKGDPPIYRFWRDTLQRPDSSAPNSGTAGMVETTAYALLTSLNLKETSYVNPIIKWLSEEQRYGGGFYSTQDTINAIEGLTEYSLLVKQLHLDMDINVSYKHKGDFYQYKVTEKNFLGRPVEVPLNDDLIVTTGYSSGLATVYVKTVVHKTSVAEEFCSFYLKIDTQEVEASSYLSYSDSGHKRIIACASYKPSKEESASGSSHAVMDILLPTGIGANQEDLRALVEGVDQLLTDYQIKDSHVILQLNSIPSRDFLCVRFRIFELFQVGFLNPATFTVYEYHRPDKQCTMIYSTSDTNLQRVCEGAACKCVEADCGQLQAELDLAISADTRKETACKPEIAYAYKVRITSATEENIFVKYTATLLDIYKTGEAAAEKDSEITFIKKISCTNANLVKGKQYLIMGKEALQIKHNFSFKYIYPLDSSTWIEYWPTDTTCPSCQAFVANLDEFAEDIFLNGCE
T3 sequence (P08650 19-674 limits assumed): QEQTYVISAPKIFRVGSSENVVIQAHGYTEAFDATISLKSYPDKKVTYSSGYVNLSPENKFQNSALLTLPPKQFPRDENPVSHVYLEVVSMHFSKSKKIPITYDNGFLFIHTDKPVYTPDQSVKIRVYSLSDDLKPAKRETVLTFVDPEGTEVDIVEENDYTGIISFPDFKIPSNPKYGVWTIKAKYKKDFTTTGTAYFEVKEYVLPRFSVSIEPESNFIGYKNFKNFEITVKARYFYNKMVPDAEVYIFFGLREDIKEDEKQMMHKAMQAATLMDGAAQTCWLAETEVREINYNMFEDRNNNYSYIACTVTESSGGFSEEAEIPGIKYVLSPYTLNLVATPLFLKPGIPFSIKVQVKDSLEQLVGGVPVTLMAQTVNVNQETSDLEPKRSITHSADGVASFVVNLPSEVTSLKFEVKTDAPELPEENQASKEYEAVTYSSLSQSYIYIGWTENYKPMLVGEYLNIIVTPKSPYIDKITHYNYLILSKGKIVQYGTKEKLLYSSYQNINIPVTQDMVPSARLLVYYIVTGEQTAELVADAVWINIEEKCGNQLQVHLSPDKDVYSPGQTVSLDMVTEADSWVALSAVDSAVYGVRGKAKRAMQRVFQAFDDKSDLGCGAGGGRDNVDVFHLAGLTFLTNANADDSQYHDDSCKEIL
The experiment in a line: Inhibition of C5 hemolytic activity in serum. The method, then: as §1

Assay [4] concerns the target T4, C5 hemolytic activity in mouse serum (Mus musculus, UniProt P06684).
T4 construct: from tissue; host or cells: mouse serum
The experiment in a line: Inhibition of C5 hemolytic activity in serum. The following applies: FIG. 5D. As to the method:
as §1

Assay [5] concerns C5 hemolytic activity in rabbit serum. The experiment in a line: Inhibition of C5 hemolytic activity in serum. The method, then: as §1
The target in assay [6] is T1, C5. Nature of the assay: Hemolytic assay, alternative pathway (rabbit erythrocytes). The following applies: 600 ng scFv, increasing amounts of C5, FIG. 4B. As to the method: Values from spectrophotometric reading performed at 412 nm to measure inhibition of lysis of sheep erythrocytes coated with EAC1-3b, through the classical complement activation pathway (A Panel); or of rabbit erythrocytes in order to measure the alternative pathway of complement activation (B Panel). Increasing amounts of C5 were mixed with 600 ng of the scFv antibody of the invention with an unrelated scFv, or with GVBS in which the scFv of the invention were solubilised, as described in example 9. After incubation with serum lacking in C5, obtained from a patient with selective deficiency of this complement component, the percentage of hemolysis was measured compared to the 100% value obtained by lysing erythrocytes in an equal volume of distilled H2O and a blank obtained by resuspending eythrocytes in GBVS. Having assessed the characteristics of the inhibition of the classical activation pathway of factor C5 by the TS-A12/22 antibody, it was then verified whether there was inhibition also of the alternative pathway of C5 activation, and at which level. […] After incubation for 30 minutes at 37° C., the percentage of erythrocyte lysis was measured by comparison to a 100% value obtained by lysing erythrocytes with an equal volume of distilled of H2O and to a blank consisting of erythrocytes re-suspended in GBVS. […]

Entries after “also recorded” stand apart in the source; their conditions may differ.

T1 sequence (P01031 678-1676 limits assumed): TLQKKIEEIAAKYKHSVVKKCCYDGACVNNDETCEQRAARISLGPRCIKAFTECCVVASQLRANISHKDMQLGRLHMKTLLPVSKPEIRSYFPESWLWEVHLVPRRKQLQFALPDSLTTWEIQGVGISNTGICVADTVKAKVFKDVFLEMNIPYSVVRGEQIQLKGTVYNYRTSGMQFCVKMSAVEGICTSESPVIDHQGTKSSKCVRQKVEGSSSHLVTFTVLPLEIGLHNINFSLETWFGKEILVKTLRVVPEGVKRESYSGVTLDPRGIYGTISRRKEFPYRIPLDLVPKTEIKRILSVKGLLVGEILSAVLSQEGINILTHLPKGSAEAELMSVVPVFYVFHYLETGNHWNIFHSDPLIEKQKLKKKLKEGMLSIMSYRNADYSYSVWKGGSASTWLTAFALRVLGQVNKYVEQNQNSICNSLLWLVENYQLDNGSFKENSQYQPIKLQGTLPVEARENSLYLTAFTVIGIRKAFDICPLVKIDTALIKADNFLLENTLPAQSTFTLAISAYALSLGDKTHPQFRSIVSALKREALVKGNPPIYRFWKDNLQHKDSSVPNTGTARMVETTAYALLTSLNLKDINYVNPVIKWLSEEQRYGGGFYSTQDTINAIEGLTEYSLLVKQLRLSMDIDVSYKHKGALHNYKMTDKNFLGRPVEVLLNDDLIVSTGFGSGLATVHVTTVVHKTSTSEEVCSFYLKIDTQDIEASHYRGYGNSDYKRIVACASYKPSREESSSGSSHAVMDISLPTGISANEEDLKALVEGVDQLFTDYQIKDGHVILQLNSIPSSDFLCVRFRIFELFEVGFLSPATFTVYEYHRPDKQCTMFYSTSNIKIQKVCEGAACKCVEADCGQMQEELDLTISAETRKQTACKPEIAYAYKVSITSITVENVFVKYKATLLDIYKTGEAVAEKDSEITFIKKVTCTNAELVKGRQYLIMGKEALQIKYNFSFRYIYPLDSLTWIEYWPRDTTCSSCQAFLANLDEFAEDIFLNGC
T1 sequence (P01031 19-673 partner limits assumed): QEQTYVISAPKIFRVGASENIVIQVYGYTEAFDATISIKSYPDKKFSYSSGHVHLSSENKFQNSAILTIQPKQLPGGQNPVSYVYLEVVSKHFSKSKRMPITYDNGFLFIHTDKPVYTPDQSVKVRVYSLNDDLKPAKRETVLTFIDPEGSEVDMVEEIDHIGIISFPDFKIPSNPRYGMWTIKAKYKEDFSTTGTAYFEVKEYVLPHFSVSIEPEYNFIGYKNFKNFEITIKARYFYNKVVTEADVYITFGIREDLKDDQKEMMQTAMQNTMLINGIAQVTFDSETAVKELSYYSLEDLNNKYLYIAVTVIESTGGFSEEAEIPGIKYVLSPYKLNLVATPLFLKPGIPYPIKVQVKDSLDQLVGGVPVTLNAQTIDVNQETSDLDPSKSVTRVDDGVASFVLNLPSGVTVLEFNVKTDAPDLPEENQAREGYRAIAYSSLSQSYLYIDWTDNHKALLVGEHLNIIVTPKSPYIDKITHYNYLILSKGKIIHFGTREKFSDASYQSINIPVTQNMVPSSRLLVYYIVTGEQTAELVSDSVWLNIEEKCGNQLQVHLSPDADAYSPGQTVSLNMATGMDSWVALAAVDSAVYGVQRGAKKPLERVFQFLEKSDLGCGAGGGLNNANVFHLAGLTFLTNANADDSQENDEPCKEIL
T4 sequence (P06684 679-1680 limits assumed): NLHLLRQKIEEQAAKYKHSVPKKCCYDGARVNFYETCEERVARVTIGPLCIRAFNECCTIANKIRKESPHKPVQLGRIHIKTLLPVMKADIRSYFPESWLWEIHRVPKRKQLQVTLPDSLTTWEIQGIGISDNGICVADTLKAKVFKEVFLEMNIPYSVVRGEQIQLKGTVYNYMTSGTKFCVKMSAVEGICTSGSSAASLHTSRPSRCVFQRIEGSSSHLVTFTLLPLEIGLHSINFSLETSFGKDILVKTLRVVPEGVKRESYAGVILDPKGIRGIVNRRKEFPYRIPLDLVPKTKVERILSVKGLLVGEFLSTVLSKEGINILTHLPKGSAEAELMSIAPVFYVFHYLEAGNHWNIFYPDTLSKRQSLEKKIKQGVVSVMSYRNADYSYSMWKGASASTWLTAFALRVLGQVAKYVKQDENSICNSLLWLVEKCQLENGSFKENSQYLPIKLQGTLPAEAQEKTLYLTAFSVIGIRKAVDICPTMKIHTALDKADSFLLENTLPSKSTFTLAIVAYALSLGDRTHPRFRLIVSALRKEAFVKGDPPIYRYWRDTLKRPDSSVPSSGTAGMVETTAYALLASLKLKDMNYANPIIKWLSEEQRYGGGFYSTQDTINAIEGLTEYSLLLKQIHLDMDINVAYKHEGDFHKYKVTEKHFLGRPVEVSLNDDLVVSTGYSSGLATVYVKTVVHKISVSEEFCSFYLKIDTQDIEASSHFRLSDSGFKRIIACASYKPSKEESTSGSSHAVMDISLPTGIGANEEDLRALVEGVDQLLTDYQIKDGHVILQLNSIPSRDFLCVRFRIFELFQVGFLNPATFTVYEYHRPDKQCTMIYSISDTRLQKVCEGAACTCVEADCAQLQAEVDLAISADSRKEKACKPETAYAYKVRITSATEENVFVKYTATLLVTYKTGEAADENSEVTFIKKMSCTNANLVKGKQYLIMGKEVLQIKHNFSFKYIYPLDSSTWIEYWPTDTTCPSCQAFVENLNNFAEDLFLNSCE
T4 sequence (P06684 19-674 partner limits assumed): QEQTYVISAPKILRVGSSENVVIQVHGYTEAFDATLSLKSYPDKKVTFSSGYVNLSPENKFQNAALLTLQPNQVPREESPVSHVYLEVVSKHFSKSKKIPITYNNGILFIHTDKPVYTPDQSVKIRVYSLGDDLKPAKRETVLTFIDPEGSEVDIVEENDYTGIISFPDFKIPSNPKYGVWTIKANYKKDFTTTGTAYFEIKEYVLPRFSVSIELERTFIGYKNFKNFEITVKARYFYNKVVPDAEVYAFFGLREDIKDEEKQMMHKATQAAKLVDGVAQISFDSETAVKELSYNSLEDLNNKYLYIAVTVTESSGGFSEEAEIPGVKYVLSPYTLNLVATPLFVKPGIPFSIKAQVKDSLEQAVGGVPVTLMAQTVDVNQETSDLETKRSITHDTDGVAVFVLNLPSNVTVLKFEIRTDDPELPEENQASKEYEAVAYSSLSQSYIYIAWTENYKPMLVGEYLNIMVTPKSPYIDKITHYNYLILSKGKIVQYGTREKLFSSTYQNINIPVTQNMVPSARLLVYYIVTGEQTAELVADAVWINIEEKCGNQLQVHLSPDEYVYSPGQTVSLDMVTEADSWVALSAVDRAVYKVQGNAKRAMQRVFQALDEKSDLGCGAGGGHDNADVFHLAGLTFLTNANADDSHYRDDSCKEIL
T2 sequence (P01031 678-1676 limits assumed): as the sequence (P01031 678-1676 limits assumed) above
T2 sequence (P01031 19-673 partner limits assumed): as the sequence (P01031 19-673 partner limits assumed) above

B1: TS-A12/22: anti-C5 scFv obtained from TS-A12 by VL chain shuffling; VH3/V-48 and Vλ3/V2-14; amino acid sequence SEQ ID NO:6 (protein, listed as Homo sapiens)
scFv: DIRMTQSPDSLAVSLGERATINCKSSQSVLYSSNNKNYLAWYQQKPGQPPKLLIYWASTRESGVPDRFSGSGSGTDFTLTISSLQAEDVAVYYCQQYYSTPQLTFGGRTKVDIKSGGSTITSYNVYYTKLSSSGTQVQLQQSEGGVVQPGRSLRLSCAASGFTFSSYGMNWVRQAPGKGLEWVSYISSSSSTIYYADSVKGRFTISRDNSKNTLYLQMNSLRAEDTAVYYCARGPGMDVWGQGTTVTVSS
As to B1, the “inhibition of formation of C5a” value with C5 [1] is recorded as “inhibit almost completely”. Besides, the “inhibition of hemolytic activity in serum” value in assay [2], in assay [3] (FIG. 5B), in assay [4] and in assay [5] (FIG. 5C) was “capable of inhibiting” throughout. Further, the “efficiency of inhibition compared with human serum” value in assay [3] was “practically similar to that of human serum; also recorded: higher”; in assay [5], “higher”. Besides, in the assay with C5 [6], the “inhibition of lysis of rabbit erythrocytes through the alternative pathway” value was “inhibits”.
